The values below come from article PMC3173040.

Assay [1] has as its target 3W-VCD-AviTag bound to quantum dots (Vibrio parahaemolyticus) (UniProt Q87GE5). As to the kind of experiment: TIRF microscopy.
Assay [2] concerns the target actin (UniProt P68135). Description: SAXS.
In assay [3] the target is VopL fragment 200-484 (1W-VCD) (Vibrio parahaemolyticus) (UniProt Q87GE5). Description: SEC-MALS.
Assay [4] has as its target actin (UniProt P68135). Description: SEC-MALS.
In assay [5] the target is actin (UniProt P68135). Description: ITC.

Substance “actin (from UniProt P68135 1-377) (natural protein)” had a percent of filaments associated with Qdots through the pointed end in assay [1] of 10.9%.

On to “VopL fragment 200-484 (1W-VCD) (from UniProt Q87GE5 200-484) (domain or fragment)”, for which the stoichiometry N (actin molecules per 1W-VCD dimer) with actin [2] and in the assay with actin [4] was 2 throughout. The substance also had a stoichiometry N in assay [3] of 2.

“third W domain of VopL (domain or fragment)”: the Kd with actin [5] came out at 410 nM.
